Holding throughout (type): biochemical
A short description of series [1]: HTP-analysis of supernatants pretreated with acid (MUGal hydrolysis). The settings on record: activity of the variant/activity of Rd3BB (SEQ ID NO: 13); challenge at pH 3.7. An outline of the steps: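 Supernatants from INVSc1 yeast secreting GLA variants were challenged at 37° C. for 1-3 h in McIlvaine buffer at pH 3.3-4.3. Residual activity was then measured on 4 mM MUGal substrate stock at pH 4.8 with citrate buffer pH 4.3, over 30-180 min at 37° C. Reactions were quenched with sodium carbonate and read by fluorescence (Ex 355/Em 448 nm).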

Series [2] in a line: HTP-analysis of supernatants pretreated with base (MUGal hydrolysis). The settings on record: activity of the variant/activity of Rd3BB (SEQ ID NO: 13); challenge at pH 9.7. An outline of the steps:
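Fluorescence of released 4-MU (Ex 355 nm, Em 448 nm) after carbonate quench reports MUGal hydrolysis by GLA variants secreted from INVSc1 yeast. Before the acidic (pH 4.3-4.8) 30-180 min reaction at 37° C, supernatants had been pre-incubated at pH 7.0-9.7 for 1-18 h at 37° C.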

Series [3] is described as follows: HTP-analysis of yeast culture supernatants, no challenge (MUGal hydrolysis). The settings on record: activity of the variant/activity of Rd3BB (SEQ ID NO: 13). Summed up: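 GLA variants were expressed in INVSc1 yeast grown in SD-Ura broth with glucose at 30° C., and culture supernatants were collected after 66-84 h. Supernatant was mixed with McIlvaine buffer pH 4.8 and MUGal (2 mM stock) in 50 mM citrate, 200 mM KCl, pH 4.6, incubated at 37° C. for 30-180 minutes, then quenched with sodium carbonate.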

The results in this text go back to US11278600B2, “Human alpha-galactosidase variants” (Codexis, Inc., priority 2014, dated 2022).

B1: 547 (protein)
chain: LDNGLARTPTMGWLHWERFMCNLDCQEEPDSCISEKLFMEMAERMVSEGWKDAGYEYLCIDDCWMAPQRDSEGRLQADPQRFPHGIRQLANHVHSKGLKLGIYADVGNKTCAGFPGSFGYYDIDAQTFADWGVDLLKFDGCYCDSLENLADGYKHMSLALNRTGRSIVYSCEWPLYMWPFQKPNYTEIRQYCNHWRNFADIDDSWASIKSILDWTSRNQERIVDVAGPGGWNDPDMLVIGNFGLSWDQQVTQMALWAIMAAPLFMSNDLRHISPQAKALLQDKDVIAINQDPLGLQGYQLRKGDNFEVWERPLSGDAWAVAIINRQEIGGPRSYTIPVASLGKGVACNPACFITQLLPVKRQLGFYNWTSRLKSHINPTGTVLLQLENTMQMSLKDLL
modifications: Synthetic Polypeptide sequence of Variant No. 547 of mature Human GLA
In the case of B1, the “Relative Activity of GLA Variants After Challenge at pH 3.7” value (“Relative Activity … at pH 3.7” for short) in series [1] is on record as “+ (+ = 1.5 to 5 relative activity over Rd3BB (SEQ ID NO: 13))”. Also, in series [2], the “Relative Activity of GLA Variants After Challenge at pH 9.7” value (shortened to “Relative Activity … at pH 9.7”) is reported as “++ (++ = >5 to 10 relative activity over Rd3BB (SEQ ID NO: 13))”. Further, the “Relative Activity of GLA Variants After No Challenge (NC)” value in series [3] is on record as “+ (+ = 1.5 to 5 relative activity over Rd3BB (SEQ ID NO: 13))”.

B2: 551 (protein)
chain: LDNGLARTPTMGWLHWERFMCNLDCQEEPDSCISEKLFMEMAERMVSEGWKDAGYEYLCIDDCWMAPQRDSEGRLQADPQRFPHGIRQLANHVHSKGLKLGIYADVGNKTCAGFPGSFGYYDIDAQTFADWGVDLLKFDGCYCDSLENLADGYKHMSLALNRTGRSIVYSCEWPLYMWPFQKPNYTEIRQYCNHWRNFADIDDSWASIKSILDWTSRNQERIVDVAGPGGWNDPDMLVIGNFGLSWDQQVTQMALWAIMAAPLFMSNDLRHISPQAKALLQDKDVIAINQDPLGTQGYQLRKGDNFEVWERPLSGDAWAVAIINRQEIGGPRSYTIPVASLGKGVACNPACFITQLLPVKRQLGFYNWTSRLKSHINPTGTVLLQLENTMQMSLKDLL
modifications: Synthetic Polypeptide sequence of Variant No. 551 of mature Human GLA
Consider B2, for which the “Relative Activity … at pH 3.7” value in series [1] was “+ (+ = 1.5 to 5 relative activity over Rd3BB (SEQ ID NO: 13))”. In addition, the “Relative Activity … at pH 9.7” value in series [2] is “++ (++ = >5 to 10 relative activity over Rd3BB (SEQ ID NO: 13))”. The “Relative Activity of GLA Variants After No Challenge (NC)” value in series [3] is on record as “+ (+ = 1.5 to 5 relative activity over Rd3BB (SEQ ID NO: 13))”.

B3: 553 (protein)
chain: LDNGLARTPTMGWLHWERFMCNLDCQEEPDSCISEKLFMEMAERMVSEGWKDAGYEYLCIDDCWMAPQRDSEGRLQADPQRFPHGIRQLANHVHSKGLKLGIYADVGNKTCAGFPGSFGYYDIDAQTFADWGVDLLKFDGCYCDSLENLADGYKHMSLALNRTGRSIVYSCEWPLYMWPFQKPNYTEIRQYCNHWRNFADIDDSWASIKSILDWTSRNQERIVDVAGPGGWNDPDMLVIGNFGLSWDQQVTQMALWAIMAAPLFMSNDLRHISPQAKALLQDKDVIAINQDPLGKQGYQLRKGDNFEVWERPLSGDQWAVAIINRQEIGGPRSYTIPVASLGKGVACNPACFITQLLPVKRQLGFYNWTSRLKSHINPTGTVLLQLENTMQMSLKDLL
modifications: Synthetic Polypeptide sequence of Variant No. 553 of mature Human GLA
Consider B3, for which, in series [1], the “Relative Activity … at pH 3.7” value was “+ (+ = 1.5 to 5 relative activity over Rd3BB (SEQ ID NO: 13))”. Further, the “Relative Activity … at pH 9.7” value in series [2] is “++ (++ = >5 to 10 relative activity over Rd3BB (SEQ ID NO: 13))”. Besides, the “Relative Activity of GLA Variants After No Challenge (NC)” value in series [3] is “+ (+ = 1.5 to 5 relative activity over Rd3BB (SEQ ID NO: 13))”.

B4: 548 (protein)
chain: LDNGLARTPTMGWLHWERFMCNLDCQEEPDSCISEKLFMEMAERMVSEGWKDAGYEYLCIDDCWMAPQRDSEGRLQADPQRFPHGIRQLANHVHSKGLKLGIYADVGNKTCAGFPGSFGYYDIDAQTFADWGVDLLKFDGCYCDSLENLADGYKHMSLALNRTGRSIVYSCEWPLYMWPFQKPNYTEIRQYCNHWRNFADIDDSWASIKSILDWTSRNQERIVDVAGPGGWNDPDMLVIGNFGLSWDQQVTQMALWAIMAAPLFMSNDLRHISPQAKALLQDKDVIAINQDPLGNQGYQLRKGDNFEVWERPLSGDAWAVAIINRQEIGGPRSYTIPVASLGKGVACNPACFITQLLPVKRQLGFYNWTSRLKSHINPTGTVLLQLENTMQMSLKDLL
modifications: Synthetic Polypeptide sequence of Variant No. 548 of mature Human GLA
Regarding B4, the “Relative Activity … at pH 3.7” value in series [1] is given as “+++ (+++ = >10 relative activity over Rd3BB (SEQ ID NO: 13))”. In series [2], the “Relative Activity … at pH 9.7” value is “++ (++ = >5 to 10 relative activity over Rd3BB (SEQ ID NO: 13))”. Besides, the “Relative Activity of GLA Variants After No Challenge (NC)” value in series [3] is given as “+ (+ = 1.5 to 5 relative activity over Rd3BB (SEQ ID NO: 13))”.

B5: 517 (protein)
chain: LQNGLARTPTMGWLHWERFMCNLDCQEEPDSCISEKLFMEMAERMVSEGWKDAGYEYLCIDDCWMAPQRDSEGRLQADPQRFPHGIRQLANHVHSKGLKLGIYADVGNKTCAGFPGSFGYYDIDAQTFADWGVDLLKFDGCYCDSLENLADGYKHMSLALNRTGRSIVYSCEWPLYMWPFQKPNYTEIRQYCNHWRNFADIDDSWASIKSILDWTSRNQERIVDVAGPGGWNDPDMLVIGNFGLSWDQQVTQMALWAIMAAPLFMSNDLRHISPQAKALLQDKDVIAINQDPLGKQGYQLRKGDNFEVWERPLSGDAWAVAIINRQEIGGPRSYTIPVASLGKGVACNPACFITQLLPVKRQLGFYNWTSRLKSHINPTGTVLLQLENTMQMSLKDLL
modifications: Synthetic Polypeptide sequence of Variant No. 517 of mature Human GLA
Take B5: the “Relative Activity … at pH 3.7” value in series [1] is listed as “+ (+ = 1.5 to 5 relative activity over Rd3BB (SEQ ID NO: 13))”. In series [2], the “Relative Activity … at pH 9.7” value is recorded as “+ (+ = 1.5 to 5 relative activity over Rd3BB (SEQ ID NO: 13))”. Further, the “Relative Activity of GLA Variants After No Challenge (NC)” value in series [3] is listed as “+ (+ = 1.5 to 5 relative activity over Rd3BB (SEQ ID NO: 13))”.

B6: 552 (protein)
chain: LDNGLARTPTMGWLHWERFMCNLDCQEEPDSCISEKLFMEMAERMVSEGWKDAGYEYLCIDDCWMAPQRDSEGRLQADPQRFPHGIRQLANHVHSKGLKLGIYADVGNKTCAGFPGSFGYYDIDAQTFADWGVDLLKFDGCYCDSLENLADGYKHMSLALNRTGRSIVYSCEWPLYMWPFQKPNYTEIRQYCNHWRNFADIDDSWASIKSILDWTSRNQERIVDVAGPGGWNDPDMLVIGNFGLSWDQQVTQMALWAIMAAPLFMSNDLRHISPQAKALLQDKDVIAINQDPLGKQGYQLRKGDNFEVWERPLSGDDWAVAIINRQEIGGPRSYTIPVASLGKGVACNPACFITQLLPVKRQLGFYNWTSRLKSHINPTGTVLLQLENTMQMSLKDLL
modifications: Synthetic Polypeptide sequence of Variant No. 552 of mature Human GLA
On to B6, for which, in series [1], the “Relative Activity … at pH 3.7” value was “+ (+ = 1.5 to 5 relative activity over Rd3BB (SEQ ID NO: 13))”. In addition, in series [2], the “Relative Activity … at pH 9.7” value is reported as “++ (++ = >5 to 10 relative activity over Rd3BB (SEQ ID NO: 13))”. Moreover, the “Relative Activity of GLA Variants After No Challenge (NC)” value in series [3] is given as “+ (+ = 1.5 to 5 relative activity over Rd3BB (SEQ ID NO: 13))”.

B7: 549 (protein)
chain: LDNGLARTPTMGWLHWERFMCNLDCQEEPDSCISEKLFMEMAERMVSEGWKDAGYEYLCIDDCWMAPQRDSEGRLQADPQRFPHGIRQLANHVHSKGLKLGIYADVGNKTCAGFPGSFGYYDIDAQTFADWGVDLLKFDGCYCDSLENLADGYKHMSLALNRTGRSIVYSCEWPLYMWPFQKPNYTEIRQYCNHWRNFADIDDSWASIKSILDWTSRNQERIVDVAGPGGWNDPDMLVIGNFGLSWDQQVTQMALWAIMAAPLFMSNDLRHISPQAKALLQDKDVIAINQDPLGQQGYQLRKGDNFEVWERPLSGDAWAVAIINRQEIGGPRSYTIPVASLGKGVACNPACFITQLLPVKRQLGFYNWTSRLKSHINPTGTVLLQLENTMQMSLKDLL
modifications: Synthetic Polypeptide sequence of Variant No. 549 of mature Human GLA
Turning to B7, in series [1], the “Relative Activity … at pH 3.7” value is listed as “++ (++ = >5 to 10 relative activity over Rd3BB (SEQ ID NO: 13))”. For the same molecule, in series [2], the “Relative Activity … at pH 9.7” value was “++ (++ = >5 to 10 relative activity over Rd3BB (SEQ ID NO: 13))”. In series [3], the “Relative Activity of GLA Variants After No Challenge (NC)” value is listed as “+ (+ = 1.5 to 5 relative activity over Rd3BB (SEQ ID NO: 13))”.

B8: 550 (protein)
chain: LDNGLARTPTMGWLHWERFMCNLDCQEEPDSCISEKLFMEMAERMVSEGWKDAGYEYLCIDDCWMAPQRDSEGRLQADPQRFPHGIRQLANHVHSKGLKLGIYADVGNKTCAGFPGSFGYYDIDAQTFADWGVDLLKFDGCYCDSLENLADGYKHMSLALNRTGRSIVYSCEWPLYMWPFQKPNYTEIRQYCNHWRNFADIDDSWASIKSILDWTSRNQERIVDVAGPGGWNDPDMLVIGNFGLSWDQQVTQMALWAIMAAPLFMSNDLRHISPQAKALLQDKDVIAINQDPLGSQGYQLRKGDNFEVWERPLSGDAWAVAIINRQEIGGPRSYTIPVASLGKGVACNPACFITQLLPVKRQLGFYNWTSRLKSHINPTGTVLLQLENTMQMSLKDLL
modifications: Synthetic Polypeptide sequence of Variant No. 550 of mature Human GLA
Regarding B8, the “Relative Activity … at pH 3.7” value in series [1] is given as “+ (+ = 1.5 to 5 relative activity over Rd3BB (SEQ ID NO: 13))”. In addition, the “Relative Activity … at pH 9.7” value in series [2] was “++ (++ = >5 to 10 relative activity over Rd3BB (SEQ ID NO: 13))”. Also, the “Relative Activity of GLA Variants After No Challenge (NC)” value in series [3] is reported as “+ (+ = 1.5 to 5 relative activity over Rd3BB (SEQ ID NO: 13))”.
